Experimental data published in patent US20150267232A1, “IN VIVO AND IN VITRO CARBENE INSERTION AND NITRENE TRANSFER REACTIONS CATALYZED BY HEME ENZYMES” (California Institute of Technology, priority 2012, published 2015).
Substitutions are numbered along the chain they refer to. Numbers in names are those of the source. Where “and” joins values, the source holds several entries; their conditions need not be identical. Identical values can stand only once.

Legend:
[1] = P450/hemin reactions with azide 8 under anaerobic conditions (C—H amination); type: biochemical
From the text: Benzosultam 9 (a), arylsulfonamide 13 (c), alcohol 14 (b), alkene 15 and dimer 16 (d) are defined in FIG. 13. […] B1SYN (e.g., P450BM3 with 23 amino acid substitutions) catalyzed about 45 TTN for form the benzosultam.
Small-Scale Amination Reactions Under Anaerobic Conditions.
Reaction conditions were as described herein and analyzed by reverse-phase LC-MS (Agilent 1100 series LC-MSD), acetonitrile-water, using a C18 column (Peeke Scientific, Kromasil 100 5 μm, 50×4.6 mm ID). Acetonitrile gradient for 2-isopropylbenzenesulfonyl azide reactions: 10-22% (8 min), 22-60% (10 min), 60% (2 min), at 1.5 mL min^−1. Retention times: alcohol 10 (6.3 min), sulfonamide 2 (10.6 min), dimer 4 (12.3 min), azide 1 (17.6 min).

[2] = Whole-cell C—H amination of azide 1; type: cell-based, E. coli BL21(DE3); settings: lyophilized cells
[3] = Whole-cell C—H amination of azide 1; type: cell-based, E. coli BL21(DE3); settings: intact E. coli cells; for Yield sulfonamide (%) / Yield sultam (%): OD600=30, 2 mM azide 1, 24 hours; for Yield sulfonamide (%) / Yield sultam (%) / TTN: anaerobic; for TTN: added glucose; for % ee: (S − R)/(S + R)
Experimental: Reaction conditions were as follows: 2 mM azide 1, 25 mM glucose, E. coli BL21(DE3) cells in M9-N minimal medium (OD600=30), 2.5% DMSO, oxygen depletion system (100 U ml^−1 glucose oxidase, 1400 U ml^−1 catalase) reacted for 24 hours under anaerobic conditions at 298 K. Yields determined by HPLC quantification.
(§1) Whole cell reactions used E. coli BL21(DE3) cells containing P450 or P411 catalysts, which were expressed and prepared as described elsewhere (Coelho, P. S. et al., Highly efficient carbene transfer to olefins catalyzed in vivo. Submitted (2013)). Following expression, cells were resuspended to an OD600 of 30 in M9 salts lacking NH4Cl (M9-N), and then degassed by sparging with argon in a sealed 6 mL crimp vial for at least 0.5 h. Separately, glucose (250 mM dissolved in 1×M9-N, 40 μL, or multiples thereof) was degassed by sparging with argon for at least five minutes. The oxygen quenching mixture was added to sealed 2 mL crimp vials containing stir bars and the headspace of the vials was purged with argon for five minutes at which time glucose, and then cells were added by syringe. Substrate (80 mM arylsulfonyl azide, 10 uL in DMSO) was added via syringe, and the reactions were stirred at room temperature for 24 h under positive argon pressure.
as §1, with “E.” for “Whole cell reactions used E.”, “catalysts” for “catalysts, which”, “Coelho,” for “(Coelho,”, “μL” for “uL”, “pressure. Reactions were quenched in a manner identical to reactions containing purified enzymes as described above. For chiral HPLC, the reactions were extracted and purified in an identical manner as for reactions that employed purified enzymes. Lyophilized intact cells containing sucrose as a cryoprotectant were prepared as described elsewhere (Coelho, P. S. et al., Highly efficient carbene transfer to olefins catalyzed in vivo. Submitted (2013)). The resulting cell powder, containing expressed ABC-CIS (26 mg) were added along with a stir bar to a 2 mL crimp vial and then sealed. The headspace of the vial was degassed, oxygen quenching system (40 μL) was added via syringe, followed by degassed glucose (250 mM, 40 μL), M9-N (310 μL), and finally substrate (80 mM 1, 10 μL). Lyophilized cell reactions were stirred for 24 h at room temperature, then quenched and analyzed as described above. […]” for “pressure.”
The preparative reaction was scaled up proportionally from small-scale reactions. E. coli BL21 cells containing ABC-CIS (OD600 30, 90 mL in M9-N) were sparged with argon for 45 minutes in a round bottom flask (250 mL) containing a stir bar. Separately, glucose solution (250 mM, 11.6 mL) was sparged with argon in a conical flask. The oxygen quenching mixture (10×, 11.6 mL) was degassed in a conical flask that was placed under high vacuum until slight foaming occurred (1-2 s) and then back-filled with argon; this sequence was repeated several times. Sparged glucose solution was then added to the anaerobic cell suspension via syringe, followed by the oxygen quenching system. Finally, substrate 1 (80 mM, 2.9 mL DMSO) was added dropwise via syringe, and the reaction was stirred for 24 h at room temperature. To quench the reaction, dilute HCl (3 M, 8.7 mL) and acetonitrile (125 mL) were added. […]

[4] = P450BM3 compilation plate screen (GC, cyclopropane peaks); type: biochemical; settings: P450BM3 variants

Q: What does the source list for hemin?
A: TTN arylsulfonamide 13 ([1]; 1 mol %, 2 mM NADPH): 1; TTN benzosultam 9 ([1]; 1 mol %, 2 mM NADPH): 0; arylsulfonamide 13 (% yield) ([1]; 1 mol %, 2 mM NADPH): (1) %; TTN arylsulfonamide 13 ([1]; 1 mol %, 2 mM Na2S2O4): 1; TTN benzosultam 9 ([1]; 1 mol %, 2 mM Na2S2O4): 4; arylsulfonamide 13 (% yield) ([1]; 1 mol %, 2 mM Na2S2O4): (1) %; benzosultam 9 (% yield) ([1]; 1 mol %, 2 mM Na2S2O4): (4) %; TTN arylsulfonamide 13 ([1]; 1 mol %, 10 mM Na2S2O4): 23; TTN benzosultam 9 ([1]; 1 mol %, 10 mM Na2S2O4): 61; arylsulfonamide 13 (% yield) ([1]; 1 mol %, 10 mM Na2S2O4): (23) %; benzosultam 9 (% yield) ([1]; 1 mol %, 10 mM Na2S2O4): (61) %; TTN arylsulfonamide 13 ([1]; 1 mol %, reductant None): 0; TTN benzosultam 9 ([1]; 1 mol %, reductant None): 0; TTN arylsulfonamide 13 ([1]; 10 mol %, 2 mM Na2S2O4): 0; TTN benzosultam 9 ([1]; 10 mol %, 2 mM Na2S2O4): 0; TTN arylsulfonamide 13 ([1]; 10 mol %, 10 mM Na2S2O4): 3; TTN benzosultam 9 ([1]; 10 mol %, 10 mM Na2S2O4): 4; arylsulfonamide 13 (% yield) ([1]; 10 mol %, 10 mM Na2S2O4): (30) %; benzosultam 9 (% yield) ([1]; 10 mol %, 10 mM Na2S2O4): (40) %

B1: ABC-CIS: BM3-CIS + C400S (protein, listed as Bacillus megaterium)
chain: TIKEMPQPKTFGELKNLPLLNTDKPVQALMKIADELGEIFKFEAPGRVTRYLSSQRLIKEACDESRFDKNLSQALKFARDFAGDGLVTSWTHEKNWKKAHNILLPSFSQQAMKGYHAMMVDIAVQLVQKWERLNADEHIEVSEDMTRLTLDTIGLCGFNYRFNSFYRDQPHPFIISMVRALDEVMNKLQRANPDDPAYDENKRQFQEDIKVMNDLVDKIIADRKARGEQSDDLLTQMLNGKDPETGEPLDDGNIRYQIITFLIAGHEATSGLLSFALYFLVKNPHVLQKVAEEAARVLVDPVPSYKQVKQLKYVGMVLNEALRLWPTAPAFSLYAKEDTVLGGEYPLEKGDEVMVLIPQLHRDKTVWGDDVEEFRPERFENPSAIPQHAFKPFGNGQRASIGQQFALHEATLVLGMMLKHFDFEDHTNYELDIKETLTLKPKGFVVKAKSKKIPLGGIPSPSTEQSAKKVRKKAENAHNTPLLVLYGSNMGTAEGTARDLADIAMSKGFAPQVATLDSHAGNLPREGAVLIVTASYNGHPPDNAKQFVDWLDQASADEVKGVRYSVFGCGDKNWATTYQKVPAFIDETLAAKGAENIADRGEADASDDFEGTYEEWREHMWSDVAAYFNLDIENSEDNKSTLSLQFVDSAADMPLAKMHGAFSTNVVASKELQQPGSARSTRHLEIELPKEASYQEGDHLGVIPRNYEGIVNRVTARFGLDASQQIRLEAEEEKLAHLPLAKTVSVEELLQYVELQDPVTRTQLRAMAAKTVCPPHKVELEALLEKQAYKEQVLAKRLTMLELLEKYPACEMKFSEFIALLPSIRPRYYSISSSPRVDEKQASITVSVVSGEAWSGYGEYKGIASNYLAELQEGDTITCFISTPQSEFTLPKDPETPLIMVGPGTGVAPFRGFVQARKQLKEQGQSLGEAHLYFGCRSPHEDYLYQEELENAQSEGIITLHTAFSRMPNQPKTYVQHVMEQDGKKLIELLDQGAHFYICGDGSQMAPAVEATLMKSYADVHQVSEADARLWLQQLEEKGRYAKDVWAG
modifications: cytochrome P450NADPH-P-450 reductase precursor, cytochrome P450 (BM3), CYP102A1
notes: BM3-CIS + C400S
Q: Which results are given for B1?
A: % ee [2]: 61%; TTN [2]: 750; Yield sulfonamide (%) [3]: 50%; Yield sultam (%) [3]: 46%; TTN [3]: 680; % ee [3]: 60%

B2: P450BM3: wild-type cytochrome P450BM3 from Bacillus megaterium (SEQ ID NO: 1) (protein, listed as Bacillus megaterium)
chain: TIKEMPQPKTFGELKNLPLLNTDKPVQALMKIADELGEIFKFEAPGRVTRYLSSQRLIKEACDESRFDKNLSQALKFVRDFAGDGLFTSWTHEKNWKKAHNILLPSFSQQAMKGYHAMMVDIAVQLVQKWERLNADEHIEVPEDMTRLTLDTIGLCGFNYRFNSFYRDQPHPFITSMVRALDEAMNKLQRANPDDPAYDENKRQFQEDIKVMNDLVDKIIADRKASGEQSDDLLTHMLNGKDPETGEPLDDENIRYQIITFLIAGHETTSGLLSFALYFLVKNPHVLQKAAEEAARVLVDPVPSYKQVKQLKYVGMVLNEALRLWPTAPAFSLYAKEDTVLGGEYPLEKGDELMVLIPQLHRDKTIWGDDVEEFRPERFENPSAIPQHAFKPFGNGQRACIGQQFALHEATLVLGMMLKHFDFEDHTNYELDIKETLTLKPEGFVVKAKSKKIPLGGIPSPSTEQSAKKVRKKAENAHNTPLLVLYGSNMGTAEGTARDLADIAMSKGFAPQVATLDSHAGNLPREGAVLIVTASYNGHPPDNAKQFVDWLDQASADEVKGVRYSVFGCGDKNWATTYQKVPAFIDETLAAKGAENIADRGEADASDDFEGTYEEWREHMWSDVAAYFNLDIENSEDNKSTLSLQFVDSAADMPLAKMHGAFSTNVVASKELQQPGSARSTRHLEIELPKEASYQEGDHLGVIPRNYEGIVNRVTARFGLDASQQIRLEAEEEKLAHLPLAKTVSVEELLQYVELQDPVTRTQLRAMAAKTVCPPHKVELEALLEKQAYKEQVLAKRLTMLELLEKYPACEMKFSEFIALLPSIRPRYYSISSSPRVDEKQASITVSVVSGEAWSGYGEYKGIASNYLAELQEGDTITCFISTPQSEFTLPKDPETPLIMVGPGTGVAPFRGFVQARKQLKEQGQSLGEAHLYFGCRSPHEDYLYQEELENAQSEGIITLHTAFSRMPNQPKTYVQHVMEQDGKKLIELLDQGAHFYICGDGSQMAPAVEATLMKSYADVHQVSEADARLWLQQLEEKGRYAKDVWAG
modifications: cytochrome P450NADPH-P-450 reductase precursor, cytochrome P450 (BM3), CYP102A1
Q: What does the source list for B2?
A: ee (cis) ([4]; (R,S)-(S,R), chiral β-CDX GC): 7; de ([4]; diastereomeric excess = ([cis] − [trans])/([cis] + [trans])): −81; Absolute activity ([4]; sum of the area of the cyclopropane peaks over the area of the internal standard): 0.00224; Yield sulfonamide (%) [3]: 33%; Yield sultam (%) [3]: 0.5%; TTN [3]: 5.1

B3: BM3-T268A: P450BM3 variant: T268A (protein, listed as Bacillus megaterium)
chain: B2 chain with T268A
modifications: cytochrome P450NADPH-P-450 reductase precursor, cytochrome P450 (BM3), CYP102A1
Q: With B3 as the molecule, how does the “Yield sulfonamide (%)” value [3] read?
A: 51%

Q: And the “Yield sultam (%)” value [3]?
A: 7.8%

Q: And the TTN [3]?
A: 26

Q: What about the “% ee” value [3] of the same molecule?
A: 84%

B4: ABC-T268A: P450BM3 variant: T268A, C400S (protein, listed as Bacillus megaterium)
chain: B2 chain with T268A, C400S
modifications: cytochrome P450NADPH-P-450 reductase precursor, cytochrome P450 (BM3), CYP102A1
notes: P450BM3 variant: T268A, C400S
Q: What does the source list for B4?
A: Yield sulfonamide (%) [3]: 45%; Yield sultam (%) [3]: 30%; TTN [3]: 245 and 250; % ee [3]: 89%
